The values that follow come from the DeepSol protein solubility set.

A short description of this data set: soluble on expression in E. coli; label from the status in PepcDB or PDB records.
In the case of “NDAIPTIFIHGYRGTDRSLHGMIRRFDQKYNWGTESLTVNVSPDGSISTTGTYSKNEKNPLINIVFEDNRATLPQQSMWTKKIMSYLQKNYDIKKFNAIGHSMGGGAWVSYLASYEKNKSYPQVNKIVFLAVPFYPEEYVNGDQQVDIKNANNVHAKFAQKMAKVLPDNTEIMIIGGDLEDGSNSDGEVKLNSVLYGQKLFAHQKVITHVIKGPKATHSSMHESTVVDKYVGQFLWG”, the “soluble on expression in E. coli” value is “not soluble”.
Under “MSSDMRVHSWSCSYYLDLEKQWVSGKLTLTPHSLKFIVEKTEEVLVGLPLSSIIEIRKESSLFIFGAITVLEKGQTKHWFSSLQPSRNVVFNVIEHFWRELLLSQPGTAANIPSHVTRGQELIGLMANSQKRMEDTAKDLQQQSEQLDSVLKGLEKMESDLDVADRLLTELETPSWWPFGSKFWKMPAEENLKEGVSSTCEPFGKEGVVITVPAIISERAESHSKLGKLTVLVSALEIYDSCSLLLHRFEKEDVDDIKVHSPYEVSIRQRFIGKPDVAYQLISAKMPEVIPILEVQFSSKIELLEDALVLRNKVFASSAERHAASRPKGCTPHRELPTGGQEGEQLQLQKNLPLFSEGEAQELTQILSKMKGLALDTEAELERQDAALDGITVAVDRATLNVDKQNRRMRKLM” stands “not soluble”; under “QVKDFVIEPPIKNNLHIYKTFGVFGGKEYSANSMYLVTKKGVVLFDVPWEKVQYQSLMDTIKKRHNLPVVAVFATHSHDDRAGDLSFFNNKGIKTYATAKTNEFLKKDGKATSTEIIKTGKPYRIGGEEFVVDFLGEGHTADNVVVWFPKYNVLDGGCLVKSNSATDLGYIKEANVEQWPKTINKLKAKYSKATLIIPGHDEWKGGGHVEHTLELLNKK”, “soluble”; under “AHHHHHHGSGKLDWIREELEELKKKGLYVTIRVLQSAQGPWVIVNGKKVLNMCSNNYLGLAAHPKIKEAAIRAILDYGVGAGAVRTIAGTMDLHVELEEKLAKFKKREAAILFQSGYNANLGAISALLRKGEDGVFLSEELNHASIIDGMRLSGAPKVIYKHLDMEDLKKKLEENKDKKKKIIVTDGVFSMDGDLAPLPEIVELAEQYDAIVYVDDAHGEGVLGSHGRGIVDHFNLHDKVDFEMGTLSKAFGVIGGYVAGPEEAIEYLKQRARPFLFSSAPNPPDVAAAIAAVEILQKSDDLVKKLWDNTHFLQKGLRDLGYDLGNTKHPITPVMLYDEKLAQEFSRRLFEEYNIFAQAIVYPTVPLGTARIRLEPSAAHTKEDLKLVIDAFEDLGRKTGFLK”, “soluble”.
Regarding “MGSDKIHHHHHHMESENQEYQNEADLLSKQEEWCDEEFQEEDSFDIKEYDITTSPNDFNTKTMFDFIESGAVKIPGFQRNYVWDIKRASKLIESIIIGLPVPQIFLYEEARNRFLVIDGQQRLMSIYYFVKQRFPIYEKRIELRHIFDENGKIPGEVLHNDKYFTKFNLQLPSRLSNQRNKLHSLNYSTLDEYKITFDLRTIRNIIIKQNFPSDDNSSIYEVFNRLNSGGMNLKPQEIRASLYHSDFYTMLYRINALPEWRKIVGVEPDLHMKDIEILLRGFAMLVKGTEYKPSMAKFLNEFSSGCKKLEAQKIQYLEELFHSFLSSCSNLPEKAFYGKITNKFNLSMFESIFFAHCKKSFAQEIFIEDKLDYTQLERLKSDPEFINAIQNRTSSTANVKARLERAVSILAEEV”, the “soluble on expression in E. coli” value is listed as “not soluble”.
“MSLKNLFNKYNDMKGVSSVYISKAMMELNPNLFMKDLYIGKVAEHLNSVQVLSTHDNKVREEMAKDIRSLVQSSKYELLMKQKSTVSGSEVYVNRKGSKVKELIMVMNGASSLKFVYMEGDMTTDDIKKLMLYQSTSQNFIISGDLFYANNKPVTYFKKGNSDNQKDMAELSGTYNLNSIDTNYKEELSTLNDKLKRIDQGLKNMNIKEGHHHHHH”: the “soluble on expression in E. coli” value is listed as “soluble”.
With “MLSLAFGVNDIYEYEGKEYKLDLAFDNVLRVIDLTEDNSLSDVFRANLAIDVLFADDMPWPRSNEEDEYANIEEKSLVLIDIFTNYIVKENDDGLLYDIDGNKMPSATNNEDAEEIASYSLTQDADYIYASFLQDYNIDLLDSRGKMHWYKFRALLESLRDDTTIKTIIGIRQAELPSGKGTEKERNELIKLKNRYKLKD”, the “soluble on expression in E. coli” value is given as “not soluble”.
For the sequence “MVQTYRSPVRIYKHPFEIVMAAYEMRFPTCPQIPIFVGSEVTYEYKSVDGAEWVIDRKCQLNVEAPYLVKKIAGVDYVYFSQKNSLDRRKRTLDIEATNISFSSRINVKENCTYYVHAENENWTCFEQSASLDVKNFFGLESAVEKLAVRQYGANLAKGKEILEFFIEELLKKTTHIERFRDADQEETTSATDSAIEMKELSDGDAVLVNDRPPMLAAETDEMRTARATASFDDACRVCMIIYCRIFIIISSYFFNFPADSKLEAEYIRRFLGQLSPLEESRLCEIKYSLQAHHKGKLPNDAHLLRFLRARDFDVAKAKDMVHASIIWRKQHNVDKILEEWTRPTVIKQYFPGCWHNSDKAGRPMYILRFGQLDTKGMLRSCGVENLVKLTLSICEDGLQRAAEATRKLGTPISSWSLVVDLDGLSMRHLWRPGVQCLLKIIEIVEANYPETMGQVLVVRAPRVFPVLWTLISPFIDEKTRKKFMVSGGSGGDLKEELRKHIEEKFIPDFLGGSCLTTNCGLGGHVPKSMYLPVEEQEGASSSEDPLHSTYTSTATWRGYPVEVVIPIETAGCVLTWDFDVLKNDCEFSLYFSTEKIEQPAVRDGAQSPTTILNPVEMVSAAIGGASHQHPDLQCAPELKIGTPQLRLEEKAVVFQEGDSMQGSHYCSRAGTYIMQWRVPETAAGHSSTFDFGSHKCRLIYYYEILNSENFRGSVASLESCRSSSFSSIAPPTPPTPGTPRNP”, the “soluble on expression in E. coli” value is reported as “not soluble”.
Under “MGSDKIHHHHHHMAQGTLYIVSAPSGAGKSSLIQALLKTQPLYDTQVSVSHTTRQPRPGEVHGEHYFFVNHDEFKEMISRDAFLEHAEVFGNYYGTSREAIEQVLATGVDVFLDIDWQGAQQIRQKMPHARSIFILPPSKIELDRRLRGRGQDSEEVIAKRMAQAVAEMSHYAEYDYLIVNDDFDTALTDLKTIIRAERLRMSRQKQRHDALISKLLAD” stands “soluble”; under “MPMINALGLLEVDGMVAAIDAADAMLKAANVRLLSHEVLDPGRLTLVVEGDLAACRAALDAGCAAAMRTGRVISRKEIGRPDDDTQWLVTGFNRQPKQPVREPDAPVIVAESADELLALLTSVRQGMTAGEVAAHFGWPLEKARNALEQLFSAGTLRKRSSRYRLKPH”, “not soluble”; under “FKDFRLGINLNGVYAKNKILFWDEAPGTPEWQKSTGKPIDSGLYYEAIGIFKDQAAVDAYPHWAGARPGDIIFKDVNGDNVIDGNDRVRNDKSRTPRFTGGLNVDLGYKDFDLSFLLQGAMGGVFYQTTESGDFANFLKSFYDNRWTEENPDADFPRTYNRSNEYFINQQNTFWLHKTDYIRLKNIELGYTVPSIWSKKIGVEHLRVYINAYNLLTISPDMKDYDPENTSGSGYNYPLNKVINFGVNLTF”, “not soluble”.
For the sequence “MSLYSKDGENYFIVDAHVALWDARRENQRNIHGKQFIDCFYDYHRNLSPASELWPYEDFLYQGGERLMKDLFTDGYVDHAIFQPAHLGAFYNTGFGQTEEAFALTRKHPGMLTYNHCFDPRFEEAGLKQLREDAARFGLKGVKLYTAEWKGDSRGYKLSDPWTYRYLDACRELGIKNIHVHKGPTIRPLDRDAFDVADVDAAASDFTDLNFVVEHCGLPRLEDFCWIATQEPNVHAGLAVAIPFMHTRPRYFAQIIGELLYWLDEDRIQFSSDYALWTPRWIVEQFVDFRIPDDMTGEYPQLTVAQKKKILGLNAAAMYDIEVPAEGHHHHHH”, the “soluble on expression in E. coli” value is listed as “soluble”.
Turning to “MSLVTLRSLAQQLKVHVSTVSRVLNGTDDDARNAAAPETVERIRELAQQLNYRPNPHAIGLRTQKTRTVSVLVPQLSDLVVATIYEGIDAAAADSRYLTFVANTGDAPPRQRQLGEMALDRRVEGLIFADARRDDTRFLDEIARRGVPMVLVSRHLGTHCAVTCDDVAGGRMAAEHLLALGHRDIAVLAGEQYASTGCDRSAGFIAYCREQGVDIPAKWILHGPFDTRAGRLAGEKLFRSARKPSAVFAVNDFLAIGLMGAVRDRGLRAGHDVAIVGFNDTPLAAELPISLTTIRSPMHAMGYRSMELLLERIKGGRPASERLAPQLMVRASTCPREGIITITTDPNSSSVDKLAAALEHHHHHH”, the “soluble on expression in E. coli” value was “soluble”.
“MSLFLMDQYIKVDITVEENEQERIMAELLAIGFDSFAEHANMLEAYVEKSAFSEADLKEVLHEVNPAYTYTFAEMPNINWNEEWEKNFDPLVIANQCYVRASFHAERPEFQYEVVINPKMSFGTGHHAEGHHHHHH”: the “soluble on expression in E. coli” value is recorded as “soluble”.
Regarding “MGSDKIHHHHHHAQTDSMLIRPTVDKRVELLSIIFRLTGNPEYNRNDFKLYTDRIESHFSPYKNHELISFARSLVKTDGVSYDAVMSMAINLDNQFNLPADYGSLDSRWNRNQVGPFIKLLKKFVKDSRFDAFYHSNENLYQEAVSRFMPIYKSIDTQWYNDFYGQKSNDRFHIILSMSNGPGNYGPSVTDKENVHNVFSVMGAWVTDSVGMVVYPPELILPILIHEFNHSFINFDPEMFRTSGEQIYAAVGEQMARQAYGQWSIVLTEAMVRAAVIKYMKDHNFPAVEITKETVIQKTRGFVWISKLVDELEKYSSDRTTYPTLNSYMPRLAEAYTGFAQYTANYDSIRPKVVSIDEFTNGDTTVRSDIKTITVHFDRPLVGRGHSFNYGHLGMEAMPKIINVNYANDNRTVIIGVELLPGKEYGITLLGLSFRTPEGDAIKPYEISFKTAE”, the “soluble on expression in E. coli” value is reported as “not soluble”.
Under “MNYAGSEKRVAIEEKKKIVEFLWKRNEEQEIVGHIYIGRIVRTIAGMNAAFVNIGLEKHAYLSYDDVPSAYRIHEGQAVLVQVVKEAIDTKGPKLTANIEFTGKYVVYMPYDEMRAVSRKIKNNKRRQQLLQIEVEGTGGYIFRSASEKGEIEEIQAEMQRLQQLYEELKRKEEQGKAPLLLHRPATFLDRVFQENPIETIEKVVVDTRSIVKELEEKVGKEKVSFYNEKSSMFNHFGIEREIEKALQKIVWLPNGAYLIVEQMETMTVIDVNTGKFTGKQNLQDTVLRTNELAAEEIARQLRLRDIGGMILIDFINMKRREDKEKVRECLVAAMQNDRTYTRVLGFTELGILEMTRKRKKHSLRDVLLEECAPCKATGYVMSYETIAYELERELLTYGNIEDEAVLISAPKELQKQFLQKELQKNIPFEIYFKDDMIEKYAIIRFGSKKEIVERKNS” stands “not soluble”; under “MGSDKIHHHHHHMMDMLMSTPNYNASLLAMATAALNALDSSHAGAAHATEAQQSHFLCNWMAQALKDKSFDKAIAGELTLWVRQGRSMGSSAQLKRLLQTIRHQYSTLAEHTMGLGNALAKMLEDARQQDVIVYTDTPVKTKLKLDADGQSSIIVCADEYQQHIRDGELIKPISLFVRADEKFLAKLAFSHGLMLTQGDKKSSLIKHHKSYKLFPKNQLPSLALLTFH”, “not soluble”.
For the sequence “MSLLSAFDTTAQRLGTASQNIEKDFWVCWTLDALFNGLSERGPRLLFKGGTSLSKGFGLINRFSEDIDVTVFRDDIGEPATIEELNVLSRNKRRARLDAIKEACQAYINGPLRAELTAILQKRLQAAGLSAGDARVEADGADSDGQTLLIWYPAATPRSDYVRAAIKIESGAKSALDPNSEVPIKAYVDDDLPALDLTVPAVRTVDPERTFWDKVVILHGLRRWFDKRGELRGGGQRVSRHYYDLHRLTAAPVGAAAIDDAALGADCVAHARMFFNRPDYDLATAAPGSFALAPHDEMIEQLRTDYRAMQGMIFGDPPSFEAVLKSINSLETQLNKDIANEGGPTREGHHHHHH”, the “soluble on expression in E. coli” value is listed as “soluble”.
Then “MSLAQIKSLFATRLYHAPLSEHGPALDPAEFAASCYSIAEDDDAGQEWCEREGYPGYTSYASLTDLPWRFPIFADLVKSLDAHVAAFAEDLEFELDGKALRLEDIWINILPEGGVHGSHIHPHSVISGTTYVAMPEGTSALKLEDPRLPFMMAAPTRRKGAREELRTFRSVAPKVGDVLLWESWLRHEVPMNMAEEDRISVSFNYAWGEGHHHHHH”, with “soluble”.
